This data set concerns the molecule itself. The data set is described as follows: SEC-MALS; Protein KW.802.5 (Shodex) column, 1 mL/min, 50 mM TRIS/HCl, 500 mM NaCl, pH 8.0; protein conjugate analysis. (In general: In gel filtration, larger molecules generally elute earlier.)

Results on one protein are retold here after PMC9616769, “Deconstruction of Neurotrypsin Reveals a Multi-factorially Regulated Activity Affecting Myotube Formation and Neuronal Excitability” (Molecular Neurobiology, 2022).

B1: AGR-124 (human agrin y4z19, FS9-LG3 domains, Ala893-Pro2068) (domain or fragment)
chain: not shown
modifications: glycans (limited N-linked, presumably O-linked) contributing around 10% of the total mass
notes: human agrin y4z19, 9th FS domain to the last LG domain (FS9-LG3), Ala893-Pro2068; codon-optimized synthetic gene; Tag removed with TEV protease; also called agrin-like AGR-124 substrate; source: SFM-HEK293 suspension cells, transient transfection; purified from the medium (Ni-IMAC, heparin, SEC); not shown: 6xHis, N-terminal, cleaved
As to B1, the binding result is recorded as “binds”.
